Substitutions are numbered along the chain they refer to.
B1: 抗LAP单克隆抗体 A-5 (全抗, mouse IgG2a / mouse Ck) (antibody, V domains shown)
VH: EVQLQQSGAVLVRPGDSVKLSCKASGYSFTRSWINWVKQRPGQGLEWIGNIYPSDSYTNYNQKFKDKATLTVDKSSSTAYMQLRSPTSEDSAVYYCTNYYLYYFDYWGQGTTLTVSS
VL: DIVLTQSPSSLAVSTGEKVTMSCKSSQSLLNSRTRKSYLAWYQQKPGQSPKLLIYWTSIRESGVPDRFTGNGSGTDFTLTISSVQAEDLAVYYCKQSYNLFTFGGGTKLEMKR
notes: Full antibody made in HEK293E from vector pTSE
B2: 抗LAP单克隆抗体 A-4 (全抗, mouse IgG2a / mouse Ck) (antibody, V domains shown)
VH: EVKLQESGPGLVAPSQSLSITCTVSGFSLTTYGVSWVRQPPGKGLEWLGIIWGDGTTIYQSGLISRLSISKDDSKSQVFLKLSSLQTDDTATYYCAKHYFVMDYWGQGTSVTVSS
VL: B1 VL with T15A, S22N, T34I, S37N, T57A, I59T, N71S, F101W, M111I, R113A
notes: as for B1
B3: 抗LAP单克隆抗体 A-1 (全抗, mouse IgG2a / mouse Ck) (antibody, V domains shown)
VH: EVQLEQSGPELKKPGETVKISCKASGYTFTSYGMNWVKQAPGKALKWMGWINTYTGEPTYADDFKGRFAYSLEATANTAYLQIYNLKNEDTATYFCARSGRYTRPLYYIMDFWGQGTSVTVSS
VL: not shown
notes: Full antibody made in HEK293E from vector pTSE; also called A-1抗体
B4: 抗LAP单克隆抗体 A-6 (全抗, mouse IgG2a / mouse Ck) (antibody, V domains shown)
VH: QVKLQESGPELVKPGASVKISCKASGYTFTDYNMHWVKQSHGKSLEWIGYFYPYNGGTGYKQKFKSKATLTVDNSSSTAYMELRSLTSEDSAVYYCARNHYYYYAMDYWGQGTSVTVSS
VL: DIVMTQTPSSLAVSAGEKVTMSCKSSQSLLNSRTRKNYLAWYQQKPGQSPKLLIYWASTRESGVPDRFTGSGSGTDFTLTISSVQAEDLAVYYCKQSYNLPWTFGGGTKLEIKA
notes: as for B1
B5: 抗LAP单克隆抗体 A-2 (全抗, mouse IgG2a / mouse Ck) (antibody, V domains shown)
VH: EVQLEESGAELVRSGASVKLSCTASGFNFNDYYMHWVKQRPEQGLEWIGWIDPENGDTEYAPKFQVKATMTADTSSNTAYLHLSSLASEDTAVYYCNTPTEDMDYWGQGTSVTVSS
VL: DIVMTQSPSSLAVSAGEKVTMSCKSSQSLFNSRTRKNYLAWYQQKPGQSPKLLIYWASTRGSGVPDRFTGSGSGTDFTLTISSVQAEDLAVYYCKQSYNLLTFGAGTKLELKA
notes: as for B1
B6: 抗LAP单克隆抗体 A-3 (全抗, mouse IgG2a / mouse Ck) (antibody, V domains shown)
VH: EVKLQESGAELVMPGASVKMSCKASGYTFTDYWMHWVKQRPGQGLEWIGAIDTSDSYTSYNQKFKGKATLTVDESSSTAYMQLSSLTSEDSAVYYCARKALSGYFDVWGAGTTVTVSS
VL: DIVLTQTPSSLSASLGGKVTITCKASQDIYKYIAWYQHKPGKGPRLLIHYTSTLQPGIPSRFSGSGSGRDYSFSISNLEPEDIATYYCLQYDNLRTFGGGTKLEIKA
notes: as for B1

target: LAP-TGFβ1抗原 (coated antigen) (UniProt P01137 30-390, limits assumed); experiment: competition ELISA on coated LAP-TGFβ1; competitor biotin-labelled 28G11 at 1 μg/ml
Sequence (P01137 30-390 limits assumed): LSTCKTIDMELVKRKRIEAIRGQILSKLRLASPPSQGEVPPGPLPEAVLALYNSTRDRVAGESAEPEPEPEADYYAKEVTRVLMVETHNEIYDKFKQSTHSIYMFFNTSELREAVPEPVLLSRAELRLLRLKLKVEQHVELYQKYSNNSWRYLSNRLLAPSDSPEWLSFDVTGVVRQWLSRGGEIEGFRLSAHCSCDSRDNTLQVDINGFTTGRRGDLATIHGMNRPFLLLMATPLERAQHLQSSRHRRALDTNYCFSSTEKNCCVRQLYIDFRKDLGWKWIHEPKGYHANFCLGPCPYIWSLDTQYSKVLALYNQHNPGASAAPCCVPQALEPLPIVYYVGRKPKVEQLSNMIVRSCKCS

Compared with B1, B2 is 6.5-fold lower in IC50: 0.0526 µg/mL for the first, 0.00805 µg/mL for the second.

Going from B3 to B4, the IC50 falls from 0.0972 µg/mL to 0.0557 µg/mL (1.7-fold).

Going from B5 to B6, the IC50 falls from 0.0764 µg/mL to 0.00695 µg/mL (11-fold).

target: LAP-TGFβ1 overexpressed on cells (过表达LAP-TGFβ1的CHO细胞) (UniProt P01137 30-390, limits assumed); experiment: cell-based or functional assay
Sequence (P01137 30-390 limits assumed): as above

Compared with B1, B3 is 2.3-fold lower in “IC50(μg/ml), 抑制细胞表面TGFβ1的释放 (PAI-LUC Mv.1.lu reporter cells, luciferase)” value: 1.69 µg/mL for the first, 0.741 µg/mL for the second.

Source: patent CN113402607A (BEIJING EASTERN BIOTECH CO LTD, dated 2021)
